{
  "source": "paper doi:10.1101/212290",
  "about": "(bioRxiv, 2017)",
  "biological_target": "IscU-IscS complex (E. coli, UniProt P0A6B7;P0ACD4, biotin (site not stated))",
  "sequence (P0A6B7 whole entry, chain 1 of 2)": "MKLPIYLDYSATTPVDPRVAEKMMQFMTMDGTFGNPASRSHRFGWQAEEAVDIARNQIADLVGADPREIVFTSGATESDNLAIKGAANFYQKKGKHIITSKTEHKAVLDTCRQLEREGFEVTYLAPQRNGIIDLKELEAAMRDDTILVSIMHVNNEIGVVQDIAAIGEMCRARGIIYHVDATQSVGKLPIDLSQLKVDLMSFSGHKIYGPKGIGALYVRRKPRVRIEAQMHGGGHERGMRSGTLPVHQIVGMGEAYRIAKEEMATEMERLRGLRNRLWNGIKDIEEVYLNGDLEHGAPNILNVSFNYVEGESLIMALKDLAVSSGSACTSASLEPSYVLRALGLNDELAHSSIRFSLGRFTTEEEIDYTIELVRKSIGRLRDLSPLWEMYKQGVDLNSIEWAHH",
  "sequence (P0ACD4 2-128, chain 2 of 2)": "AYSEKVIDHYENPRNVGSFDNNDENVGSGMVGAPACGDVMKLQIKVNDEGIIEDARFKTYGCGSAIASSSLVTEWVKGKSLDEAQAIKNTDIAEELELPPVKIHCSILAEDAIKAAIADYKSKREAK",
  "assay": "BLI",
  "data": [
    {"binder": "IscX (natural protein, most likely a mixed disulfide with beta-mercaptoethanol (+76 Da) on the majority of the protein) MGLKWTDSREIGEALYDAYPDLDPKTVRFTDMHQWICDLEDFDDDPQASNEKILEAILLVWLDEAE", "values": [
      {"measurement": "Kd", "value": "8 ± 2", "unit": "µM"}
    ]}
  ]
}
